Patent US8969060B2, “Modified glucose dehydrogenase” (Ikeda Food Research Co., Ltd., priority 2011, dated 2015)
Changes are numbered by the printed parent chain. Numbers in names are those of the source.

Legend:
Format in all cases: biochemical
[1] = Relative enzymatic activity of GLD (DCIP/1-m-PMS, plate reader, yeast culture supernatant) with proflavin hydrochloride present; conditions: site-specific mutants, inhibitor final concentration 1 mM
Summary of the method: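 Culture supernatant diluted and mixed with reagent of phosphate buffer pH 7.0, 1.0 M D-glucose, 3 mM DCIP, 3 mM 1-m-PMS and methanol (0.1:1:0.14:0.2:0.06). DCIP absorbance decrease at 600 nm followed; proflavin hydrochloride in methanol replaced methanol at 1 mM final. Activity expressed as % of inhibitor-free blank.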

[2] = Relative enzymatic activity of GLD (DCIP/1-m-PMS, plate reader, yeast culture supernatant) with 1,10-phenanthroline present; conditions: for Relative Activity: random-mutation mutants, sample value with inhibitor at 1 mM / blank value, inhibitor not named in Table 1; for Relative Activity [%] 1,10-Phenanthroline: site-specific mutants, inhibitor final concentration 1 mM
Summary of the method: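 Inhibitor at 1 mM final substitutes for the methanol in the reagent, and the sample rate is expressed as % of the inhibitor-free blank. Rates come from ΔA600/min of DCIP with glucose and 1-m-PMS at pH 7.0, using supernatants of YPD-grown yeast clones (24 h, 30° C.).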

[3] = Susceptibility to proflavin at a high concentration; conditions: final conc. 2 mM
Description: 1.0 mL of 0.1 M potassium phosphate buffer (pH 7.0), 1.0 mL of 1.0 M D-glucose, 0.14 mL of 3 mM 2,6-dichlorophenol indophenol (hereinafter referred to as DCIP), 0.2 mL of 3 mM 1-methoxy-5-methylphenazinium methylsulfate (hereinafter referred to as 1-m-PMS), 0.06 mL of methanol and 0.55 mL of distilled water are added to a 3-mL quartz cell (light path length: 1 cm), and the cell is placed in a spectrophotometer provided with a thermostat cell holder and incubated at 37° C. for 10 minutes. Thereafter, 0.05 mL of an enzyme solution is added to the cell, and then, a change in the absorbance of DCIP at 600 nm (ΔABS/min) is determined. […] Therefore, the enzymatic activity is determined from the change in the absorbance according to Equation I. In Example 8, methanol was replaced with the same amount of distilled water.
The enzymatic activity is determined in the following manner in Examples 3 and 6 wherein a plate reader (Japan Molecular Device Corporation, SpectraMax Plus384) is used. […] A reagent for the determination of the enzymatic activity comprising phosphate buffer (pH 7.0), 1.0 M D-glucose, 3 mM DCIP, 3 mM 1-m-PMS and methanol with a volume ratio of 0.1:1:0.14:0.2:0.06 is added to the 96-well microplate with an amount of 100 μl per well, and a change in the absorbance of DCIP at 600 nm (ΔABS/min) is then determined. […]

[4] = Susceptibility of purified enzyme to proflavin hydrochloride (spectrophotometer); conditions: inhibitor 1 mM
Description: (§1) 1.0 mL of 0.1 M potassium phosphate buffer (pH 7.0), 1.0 mL of 1.0 M D-glucose, 0.14 mL of 3 mM 2,6-dichlorophenol indophenol (hereinafter referred to as DCIP), 0.2 mL of 3 mM 1-methoxy-5-methylphenazinium methylsulfate (hereinafter referred to as 1-m-PMS), 0.06 mL of methanol and 0.55 mL of distilled water are added to a 3-mL quartz cell (light path length: 1 cm), and the cell is placed in a spectrophotometer provided with a thermostat cell holder and incubated at 37° C. for 10 minutes. Thereafter, 0.05 mL of an enzyme solution is added to the cell, and then, a change in the absorbance of DCIP at 600 nm (ΔABS/min) is determined. The molar extinction coefficient of DCIP at pH 7.0 is taken as 16.3×10^3 cm^−1 M^−1, and enzymatic activity to reduce 1 μmol of DCIP per minute is substantially equivalent to 1 unit of the enzymatic activity. Therefore, the enzymatic activity is determined from the change in the absorbance according to Equation I. In Example 8, methanol was replaced with the same amount of distilled water.
(§2) In the following examples, a value of the enzymatic activity determined by the spectrometer or plate reader using the above reagent composition is considered as a blank value. On the other hand, a sample value is determined using a methanol solution comprising the inhibitor such as 1,10-phenanthroline or proflavin hydrochloride at a final concentration of 1 mM instead of the methanol. Enzymatic activity (unit/mL)=(−ΔABS/16.3)×3.0/0.05×(Dilution ratio of enzyme) [Equation 1]
(§3) The mutants having the mutation of H341W and F432L, respectively, were inoculated into a shake flask containing 150 mL the YPD medium. After shaking culture at 30° C. and 120 rpm for 48 hours, the culture mixture was centrifuged at 3,000×g for 5 min. and the supernatant was filtered through a membrane filter with 10 μm. […]
(§4) After diluting the purified enzyme to an appropriate concentration, the sample value and blank value were determined in accordance with the method for determination of the enzymatic activity using the spectrophotometer.

[5] = Susceptibility to 1,10-phenanthroline at a high concentration
Description: as §1
The enzymatic activity is determined in the following manner in Examples 3 and 6 wherein a plate reader (Japan Molecular Device Corporation, SpectraMax Plus384) is used. Thus, culture supernatant that had been diluted in advance with an appropriate magnification is added to a 96-well microplate with an amount of 100 μl per well. A reagent for the determination of the enzymatic activity comprising phosphate buffer (pH 7.0), 1.0 M D-glucose, 3 mM DCIP, 3 mM 1-m-PMS and methanol with a volume ratio of 0.1:1:0.14:0.2:0.06 is added to the 96-well microplate with an amount of 100 μl per well, and a change in the absorbance of DCIP at 600 nm (ΔABS/min) is then determined. The enzymatic activity can be calculated by conversion in proportion to a change in the absorbance of an enzyme solution for which the enzymatic activity has already been known by the above-mentioned activity determination procedure using the spectrophotometer.
as §2
The relative activity was determined in the same manner as in Examples 3 and 6 in the co-existence of the inhibitors at a high concentration.

[6] = Susceptibility of purified enzyme to 1,10-phenanthroline (spectrophotometer); conditions: inhibitor 1 mM
Description: as §1, §2, §3, §4

B1: F432L: modified GLD: SEQ ID NO: 1 with substitution F432L (protein, listed as Aspergillus terreus)
chain: MLGKLSFLSALSLAVAAPLSNSTSAKYDYIVIGGGTSGLAVANRLSEDPNVNVLILEAGGSVWNNPNVTNVDGYGLAFGSDIDWQYQSVNQPYGGNLSQVLRAGKALGGTSTINGMAYTRAEDVQIDAWETIGNTGWTWKNLFPYYRKSENFTVPTKSQTSLGASYEAGAHGHEGPLDVAFTQIESNNLTTYLNRTFQGMGLPWTEDVNGGKMRGFNLYPSTVNLEEYVREDAARAYYWPYKSRPNLHVLLNTFANRIVWDGEAHDGHITASGVEITSRNGTVRVINAEKEVIVSAGALKSPAILELSGIGNPSVLDKHNIPVKVNLPTVGENLQDQVNSHMDASGNTSISGTKAVSYPDVYDVFGDEAESVAKQIRANLKQYAADTAKANGNIMKAADLERLFEVQYDLIFKGRVPIAEVLNYPGSATSVLAEFWALLPFARGSVHIGSSNPAEFPVINPNYFMLDWDAKSYVAVAKYIRRSFESYPLSSIVKESTPGYDVIPRNASEQSWKEWVFDKNYRSNFHPVGTAAMMPREIGGVVDERLNVYGTTNVRVVDASVLPFQVCGHLVSTLYAVAERAADLIKADAGRR
modifications: SIGNAL (1)..(19)
- Relative Activity [%] Proflavin hydrochloride [1]: 68.1%
- Relative Activity [2]: 80.4%
- Relative Activity [%] 1,10-Phenanthroline [2]: 91.7%
- Relative Activity[%] [3]: 91.6%
- Relative Activity [%] Proflavin hydrochloride [4]: 88.1%
- Relative Activity[%] ([5]; final conc. 1 mM): 97.0%
- Relative Activity[%] ([5]; final conc. 5 mM): 64.2%
- Relative Activity[%] ([5]; final conc. 10 mM): 47.2%
- Relative Activity[%] ([5]; final conc. 20 mM): 32.1%
- Relative Activity [%] 1,10-Phenanthroline [6]: 90.8%

B2: G426D: modified GLD: SEQ ID NO: 1 with substitution G426D (protein, listed as Aspergillus terreus)
chain: B1 chain with G426D, L432F
modifications: SIGNAL (1)..(19)
- Relative Activity [%] Proflavin hydrochloride [1]: 34.2%
- Relative Activity [%] 1,10-Phenanthroline [2]: 56.5%

B3: Wild-type: wild-type FAD-conjugated glucose dehydrogenase (GLD) of Aspergillus terreus FERM BP-08578, SEQ ID NO: 1 (protein, listed as Aspergillus terreus)
chain: B1 chain with L432F
modifications: FAD cofactor; SIGNAL (1)..(19)
- Relative Activity [%] Proflavin hydrochloride [1]: 35.0%
- Relative Activity [2]: 25.7%
- Relative Activity [%] 1,10-Phenanthroline [2]: 30.0%
- Relative Activity [%] Proflavin hydrochloride [4]: 50.9%
- Relative Activity [%] 1,10-Phenanthroline [6]: 41.1%

B4: H341W: modified GLD: SEQ ID NO: 1 with substitution H341W (protein, listed as Aspergillus terreus)
chain: B1 chain with H341W, L432F
modifications: SIGNAL (1)..(19)
- Relative Activity [%] Proflavin hydrochloride [1]: 88.4%
- Relative Activity [%] 1,10-Phenanthroline [2]: 100.3%
- Relative Activity[%] [3]: 138.2%
- Relative Activity [%] Proflavin hydrochloride [4]: 144.3%
- Relative Activity[%] ([5]; final conc. 1 mM): 99.4%
- Relative Activity[%] ([5]; final conc. 5 mM): 78.1%
- Relative Activity[%] ([5]; final conc. 10 mM): 63.2%
- Relative Activity[%] ([5]; final conc. 20 mM): 45.8%
- Relative Activity [%] 1,10-Phenanthroline [6]: 89.5%
